Measured values as given in article PMC4190031 (Cell, 2014).
Square brackets hold non-standard residues; d marks the D form. Ends that are not written are not given here.

Biological target: T1, MitTx β subunit (Texas coral snake, UniProt G9I930 31-149)
T1 sequence: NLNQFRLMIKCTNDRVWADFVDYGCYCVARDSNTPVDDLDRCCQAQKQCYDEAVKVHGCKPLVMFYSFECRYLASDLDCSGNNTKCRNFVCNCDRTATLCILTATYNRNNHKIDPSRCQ
Assay: crystal structure

B1: MitTx α subunit (natural protein)
chain: [PCA]IRPAFCYEDPPFFQKCGAFVDSYYFNRSRITCVHFFYGQCDVNQNHFTTMSECNRVCHG
modifications: cysteine pairing not given here
Does B1 bind?
Result: binds
